Measured values as given in a protein production outcome set (Wang et al. 2014).

Assay: label from the status in PepcDB records

**Q.** With “MASYYEILDVPRSASADDIKKAYRRKALQWHPDKNPDNKEFAEKKFKEVAEAYEVLSDKHKREIYDRYGREGLTGTGTGPSRAEAGSGGPGFTFTFRSPEEVFREFFGSGDPFAELFDDLGPFSELQNRGSRHSGPFFTFSSSFPGHSDFSSSSFSFSPGAGAFRSVSTSTTFVQGRRITTRRIMENGQERVEVEEDGQLKSVTINGVPDDLALGLELSRREQQPSVTSRSGGTQVQQTPASCPLDSDLSEDEDLQLAMAYSLSEMEAAGKKPAGGREAQHRRQGRPKAQHQDPGLGGTQEGARGEATKRSPSPEEKASRCLIL” as the sequence, how does the protein production read?
**A.** not failed

**Q.** Which protein production does the source give for “MASYYSGFLGCEEPHFLESCSLCRKHLGLNSDIFMYRGDKAFCSNECREEQIESDEAKERKWKKSSRSLRKNSSETKESAAGNTVRTGTLVVA” here?
**A.** failed

**Q.** Which protein production does the source give for “MATEPEAAEPVVPSLVDRYFTRWYKPDVKGKFCEDHCILQHSNRICVITLAESHPVLQSGKTIKSISYQISTNCSRLQNKVSGKFKRGAQFLTELAPLCKIYCSDGEEYTVSSCVRGRLMEVNENILHKPSILQEKPSTEGYIAVVLPKFEESKSITEGLLTQKQYEEVMVKRINATTATS” here?
**A.** failed

**Q.** For “MATEPIRIGVVGASPDRGWAADAHLPALQHLPQYKITAVGTRRADSAHRAARRYGATHAFTDPRSLAAHPDVELVAIVVKVPDHARLVEAALAAGKHVLCEWPLARTTEEAAQLTAAAHGAGVVNAVGLQARHTPTVVRARELIRQGYVGRVTSVTVYSTRGVAAGGRLPAAFAYTLDSTNGAGTLEVAGGHTLDAVQYLLGREMTGLSAALSVQHPRITLDEDARQTGATSPDHVALHATLEGGAALVVHIHDAKNSGAGTRIEISGTQGELAIVSTGPRSGSGLQISELALLGAQGTEPSGQELPFPGSWGTAVPADGLDAAQHTMAVQYAALAADIREGGSRVPRFADGIELHRLLDAVRLSSATGCRLERRAGERWPVSSPWPRRRRSR”, which protein production is on record?
**A.** failed

**Q.** With “MATEPPKIVWNEGKRRFETEDHEAFIEYKMRNNGKVMDLVHTYVPSFKRGLGLASHLCVAAFEHASSHSISIIPSCSYVSDTFLPRNPSWKPLIHSEVFKSSI” as the sequence, how does the protein production read?
**A.** not failed

**Q.** With “MATFDTRHRTALTMSADRLEQLKTFHEEDPEDPFTRYALAQEHLKHDNASRALALFEELVETDPDYVGTYYHLGKLYERLDRTDDAIDTYAQGIEVAREEGTQKDLSELQDAKLKAEGLEHHHHHH” as the sequence, how does the protein production read?
**A.** not failed

**Q.** For “MATFEEVSVLGFEEFDKAVKEHESKTIFAYFSGSKDTEGKSWCPDCVEAEPVIREGLKHVTEDCVFIYCQVGDKPYWKDPNNDFRQKLKITAVPTLLKYGTPQKLVESECCQSSLVEMIFSED”, which protein production is on record?
**A.** not failed

**Q.** Which protein production does the source give for “MATFFLVSFLSFSKWKEKRQVGLWGPEAAVTEEEEEEAGARRSGPGLAGRRLRGKGRRGRVASPAGRPDTLSRRGAGERAGCLGAGDRGLRHSDRHSPLGRGRAAPGMATSRQTASPRTRMDYLYSCQVDAMHSGMSVTRLVTQPDVLPAHRRRDIKMAAPRSCVLWSYCGHGWSRLAGDCRLPGFRRSWLGATLSARSLSQEKRAAETHFGFETVSEKEKGGKVYQVFQSVARKYDLMNDMMSLGIHRAWKDLLIRKMHPLPGTQLLDVAGGTGDIAFRFLSYVQTQHERKQRRQLRTRQNLSWEEIARKYQSKEDPLGGSLVMVCDINREMLKVGKQKALARGHTADLCECDAKLVYTVSFSSRSFTQALQEAHRVLKPGGRFLCLEFSQVNDPLISRLYDLYSFQVIPVIGEVIAGDWKSYQYLVESIRKFPNQEEFKDMIEDAGFQKVTYESLTSGIVAIHSGFKL” here?
**A.** failed

**Q.** Which protein production does the source give for “MATFRKRGKYWEYRVKYTDSAGKQLVASHGGYRLKSSAQDAAEAVEDDLKRGGDPSKQDVLLLDYWDQWAEAYRINGKSINTVYRYKLFRKHLKSRFDGRKLNSIRPIEWQKFINDFAAGKDRKEKTTRKRPRERSKDIVTKMNSYVRGMVKAAINERILFSDFTFGTKTSGVRSSGKVKVLDSRDFAKVKAIAIERASYRNIGALAVYIGSMTGMRISEVLALTWPDIDTKLCVIHVTRSWDHLYGTGFKPTKTDSSVRDIEISPSVIELLNKIHQEQAASYLRTGYRDEDQMIMRDPRHNVITDSACNKALHVIQNKAGIPEDKQITFHGLRHSHVSYLISKGVDIYYISKRLGHSDVTITMKVYGHLLDSQRKQEAHKAVLFMDQI” here?
**A.** failed

**Q.** For “MATGGLAIIQSMKHKLPPSERKLADYILAHPHKAIESTVNEISALANSSDAAVIRLCKSLGLKGFQDLKMRVAGDLAKPTFQGYRDIVPHEPLPSISEKTAGNAIQAIQDTSDLMDYKELERAVSLLLKAHTVHFIGLGASGIVAKDAQQKWLRIHKQATAFTDTHLVASLIANADKDDIVFAISFSGETQEIVELFAMAKEKGITTISLTQFSQTSVSALADVPLYTAHSNEALIRSAATSSRLAQLFIIDVLFLGMAAEQYETTTGYIDKTRAAIQSMRIK”, which protein production is on record?
**A.** not failed

**Q.** With “MATMNEKDYYEILGVSKDATSRDIQKAFQQKARKLHPDVNKEPDAEEKFKEVSEAYAVLSDEQKRARYDAMRSGNPFAGAPTASPYGGGYAGSAGYGNPFDGGFPFGGAWGQPRRGQAAYNPESGANVVVDIKLDAKEAKSGAHKTVRYTRFDTCGHCGGSGSVSSEHAHTCPSCGGRGHIDVDLSFLFGAGTFQTVCPECGGSGKVVADPCPDCGGSGRIRVTSEQTIEFPAGTHDGDEVRIPNMGHAGTNGASGGDLVGRAHVEAERLEGKARTGFYLMGIIAPFLVLSAISGVFSAFAMMCFIPFAMGLFMVLSDGVLHRSLLWWKRGAMQFANGFANGFMFALVSVWFASCSQQAMLSPYGMQ” as the sequence, how does the protein production read?
**A.** failed

**Q.** Which protein production does the source give for “MATNIPCEVVAFSDRKLKPLIYVYSFPGLTRRTKLKGNILLDYTLLSFSYCGTYLASYSSLPEFELALWNWESSIILCKKSQPGMDVNQMSFNPMNWRQLCLSSPSTVSVWTIERSNQEHCFRARSVKLPLEDGSFFNETDVVFPQSLPKDLIYGPVLPLSAIAGLVGKEAETFRPKDDLYPLLHPTMHCWTPTSDLYIGCEEGHLLMINGDTLQVTVLNKIEEESPLEDRRNFISPVTLVYQKEGVLASGIDGFVYSFIIKDRSYMIEDFLEIERPVEHMTFSPNYTVLLIQTDKGSVYIYTFGKEPTLNKVLDACDGKFQAIDFITPGTQYFMTLTYSGEICVWWLEDCACVSKIYLNTLATVLACCPSSLSAAVGTEDGSVYFISVYDKESPQVVHKAFLSESSVQHVV” here?
**A.** failed

**Q.** Which protein production does the source give for “MATNSSTEQSLTKKVWNLATTLAGQGIGFTDYITQLTYLLFLKMDAENVEMFGEESAIPTGYQWADLIAFDGLDLVKQYEETLKLLSELDNLIGTIYTKAQNKIDKPVYLKKVITMIDEEQWLIMDGDVKGAIYESILEKNGQDKKSGAGQYFTPRPLIQAMVDCINPQMGETVCDPACGTGGFLLTAYDYMKGQSASKEKRDFLRDKALHGVDNTPLVVTLASMNLYLHGIGTDRSPIVCEDSLEKEPSTLVDVILANPPFGTRPAGSVDINRPDFYVETKNNQLNFLQHMMLMLKTGGRAAVVLPDNVLFEAGAGETIRKRLLQDFNLHTILRLPTGIFYAQGVKANVLFFSKGQPTKEIWFYDYRTDIKHTLATNKLERHHLDDFVSCYNNRVEIYDAENNPQGRWRKYPVDEIIARDKTSLDITWIKPGGEVDDRSLAEL” here?
**A.** not failed

**Q.** For “MATPAYMSITGTKQGLITAGAFTADSVGNTYQEGHEDQVMVQGFSHELIIPRDPQSGQPTGQRVHKPVKITKVFDKSSPLLLAALTSGERLTEITIQWYRTSAAGTQEHYYTTKLEDAIIVDIKDYMHNCQDPANAHFTHLEDVEFTYRKITWTHEVSGTSGSDDWRSPVAG”, which protein production is on record?
**A.** not failed

**Q.** With “MATQLVKGNTAVIIGAMYAGCDCYFGYPITPASEILHEASKYFPMVGRKFVQAESEEAAINMVYGAASTGKRVLCATSGPGMSLKQEGISFLAGSELPCVLVNVQRAGPGLGNIGPEQADYNQAVKGGGHGNYKNIVLAPNSVQEMCDCTAKAFELATKYKNPVIVLSDGVLGQMVEPLKFPEQAIKPEIDESWAVRGTKETRKNLVTSIFLDFKQLEEFNYALQEKYEIIKENEQDFEGYQLDDAEIILVSYGISSRISKTAVDVARKEGIKAGLFRPKTLFPFPEKELNKLAEKKCTFISVEMSNGQMAEDIKLATCCKRPIELVNRLGGNLIEVDQILAKIKEIAGGN” as the sequence, how does the protein production read?
**A.** failed

**Q.** Which protein production does the source give for “MATRNALRIVSRRFSSGKVLSEEERAAENVFIKKMEQEKLQKLARQGPGEQAAGSASEAKVAGATASASAESGPKVSEDKNRNYAVVAGVVAIVGSIGWYLKAGGKKQPEVQE” here?
**A.** failed

**Q.** Which protein production does the source give for “MATSGFKHLVVVKFKEDTKVDEILKGLENLVSQIDTVKSFEWGEDKESHDMLRQGFTHAFSMTFENKDGYVAFTSHPLHVEFSAAFTAVIDKIVLLDFPVAAVKSSVVATP” here?
**A.** not failed

**Q.** With “MATSGTYVTEVPLKGSAKNHYKRWKSENQLFPDAIGHHIQGVTVHEGDWDSHGAIKSWNYTCDGKQEVFKEKRELDDQKMAVTFRGLDGHVMEQLKVYDVIFQFVPKSQEGCVCKVTMFWEKRYEDSPEPIKYMKFVTSLAADMDDHILKNQSKA” as the sequence, how does the protein production read?
**A.** failed

**Q.** Which protein production does the source give for “MATTNYSMIFIGNLQVAVDRSSLYESSDYSSFVARECLNKDSAMKPYDIFIFEKDEHFSVEDHYTAGNSSNESNTRPSDIFLKKKLVGLNPSILQLNREKRKATLKFSGDNKDILQSTLSSSKNINLSGGLFVSREYENKYVKFGARMRCDLVNRMKDVTLAWHESVSSTSDKNVELSSVENHKIAPKADGPGNSSNESSSSPFDIFLKKKVMRLKPSFLELNREKKKAAKGFSGIVIRPGMVLLKNYLSINNQVMIVNKCRQLGLGEGGFYQPGFQDGGLLHLKMMCLGKNWDCQTRRYGEIRPIDGSVPPRIPVEFSQLVEKAIKESKSLVATNSNETKGGDEIPLLLPDICVVNFYTSTGKLGLHQDKGESKKSLRKGLPIVSFSIGDSAEFLYGDQKDVDKADTLILESGDVLIFGERSRNVFHGVRSIRKILPPRLFFRKQIFNQVV” here?
**A.** failed

**Q.** With “MAVFVALGAFLMTLAGGWTAQRVTDRRHLVLGLAGGLMLGVVGLDLLPEALEAAGDEVFGVPAALLLFVAGFLLAHLVERLLAARRAAHGADEHEHRSPEVGLTAAAAMVGHSAMDGVAIGAAFQVGGGMGAAVAMAVIAHDFADGFNTYTLTSLYGNARRRAVAMLVADAIAPVLGASSTLLFTIPEGALGAYLGLFGGVLLYLAAAEILPEAHHEHPARSTLLCTVAGAAFIWLVVGIAE” as the sequence, how does the protein production read?
**A.** failed

**Q.** Which protein production does the source give for “MAVGKKDIECPPYAEGTPLSDADIKEKRVTYVEDHPDIRYSWTAGQAISKFLNGLKEGKILGVKCNKCGRVMVPPRMFCELCYKPIDGWVELKDTGTVETFSISYIDPDARPLPEPVIVAVISIDGASPHMGIMHILDEVKPEDVYIGMKVKAVWKSEEEREGAITDIKYWKPLEGLEHHHHHH” here?
**A.** failed

**Q.** Which protein production does the source give for “MAVLYAGRPVQKCERSRLMFNIDQPDSAPDNEDHDGDVVMHGQGSFFGRRKGHKLRAHQADLIENLLPHLSLQIDSPAPEPLTTLFDPPVEHMRLEIGFGGGEHLIAEALAHPDTGFIGAEPYVNGMAKILARIEAENIRNIRLFAGDASELLAWVPAGSLARIDLIHPDPWPKRRHWKRRFVQDATVAAMARALTPHGEFRFVCDIDGYTAWTLAHLLRAPCFDWLAQRADDWRKPWPNYTMTRYGRKAEREGRRANYLRFERL” here?
**A.** failed

**Q.** With “MAVQLLENWLLKEQEKIQTKYRHLNHISVVEPNILFIGDSIVEYYPLQELFGTSKTIVNRGIRGYQTGLLLENLDAHLYGGAVDKIFLLIGTNDIGKDVPVNEALNNLEAIIQSVARDYPLTEIKLLSILPVNEREEYQQAVYIRSNEKIQNWNQAYQELASAYMQVEFVPVFDCLTDQAGQLKKEYTTDGLHLSIAGYQALSKSLKDYLY” as the sequence, how does the protein production read?
**A.** not failed
